# Data as given in PMC5430537, “The tarantula toxin β/δ-TRTX-Pre1a highlights the importance of the S1-S2 voltage-sensor region for sodium channel subtype selectivity” (Scientific Reports, 2017).
# Bridge positions count the residues as written; N and C are the ends. Peptide text beside a SMILES is read from it.
# Columns and labels:
# NaV1.7 VSD IV = conditions: cited from earlier work
# Excerpt: (§1) NaV channel fast inactivation is controlled by the movement of the DIV voltage-sensing domain[17]. […] However, all these peptides share less than 50% similarity with Pre1a (See Fig. 1d) and have very differ ...
# [1] = target: rat NaV1.3 α-subunit (rat) (UniProt P08104)
# Sequence of rat NaV1.3 α-subunit (rat) (P08104 whole entry): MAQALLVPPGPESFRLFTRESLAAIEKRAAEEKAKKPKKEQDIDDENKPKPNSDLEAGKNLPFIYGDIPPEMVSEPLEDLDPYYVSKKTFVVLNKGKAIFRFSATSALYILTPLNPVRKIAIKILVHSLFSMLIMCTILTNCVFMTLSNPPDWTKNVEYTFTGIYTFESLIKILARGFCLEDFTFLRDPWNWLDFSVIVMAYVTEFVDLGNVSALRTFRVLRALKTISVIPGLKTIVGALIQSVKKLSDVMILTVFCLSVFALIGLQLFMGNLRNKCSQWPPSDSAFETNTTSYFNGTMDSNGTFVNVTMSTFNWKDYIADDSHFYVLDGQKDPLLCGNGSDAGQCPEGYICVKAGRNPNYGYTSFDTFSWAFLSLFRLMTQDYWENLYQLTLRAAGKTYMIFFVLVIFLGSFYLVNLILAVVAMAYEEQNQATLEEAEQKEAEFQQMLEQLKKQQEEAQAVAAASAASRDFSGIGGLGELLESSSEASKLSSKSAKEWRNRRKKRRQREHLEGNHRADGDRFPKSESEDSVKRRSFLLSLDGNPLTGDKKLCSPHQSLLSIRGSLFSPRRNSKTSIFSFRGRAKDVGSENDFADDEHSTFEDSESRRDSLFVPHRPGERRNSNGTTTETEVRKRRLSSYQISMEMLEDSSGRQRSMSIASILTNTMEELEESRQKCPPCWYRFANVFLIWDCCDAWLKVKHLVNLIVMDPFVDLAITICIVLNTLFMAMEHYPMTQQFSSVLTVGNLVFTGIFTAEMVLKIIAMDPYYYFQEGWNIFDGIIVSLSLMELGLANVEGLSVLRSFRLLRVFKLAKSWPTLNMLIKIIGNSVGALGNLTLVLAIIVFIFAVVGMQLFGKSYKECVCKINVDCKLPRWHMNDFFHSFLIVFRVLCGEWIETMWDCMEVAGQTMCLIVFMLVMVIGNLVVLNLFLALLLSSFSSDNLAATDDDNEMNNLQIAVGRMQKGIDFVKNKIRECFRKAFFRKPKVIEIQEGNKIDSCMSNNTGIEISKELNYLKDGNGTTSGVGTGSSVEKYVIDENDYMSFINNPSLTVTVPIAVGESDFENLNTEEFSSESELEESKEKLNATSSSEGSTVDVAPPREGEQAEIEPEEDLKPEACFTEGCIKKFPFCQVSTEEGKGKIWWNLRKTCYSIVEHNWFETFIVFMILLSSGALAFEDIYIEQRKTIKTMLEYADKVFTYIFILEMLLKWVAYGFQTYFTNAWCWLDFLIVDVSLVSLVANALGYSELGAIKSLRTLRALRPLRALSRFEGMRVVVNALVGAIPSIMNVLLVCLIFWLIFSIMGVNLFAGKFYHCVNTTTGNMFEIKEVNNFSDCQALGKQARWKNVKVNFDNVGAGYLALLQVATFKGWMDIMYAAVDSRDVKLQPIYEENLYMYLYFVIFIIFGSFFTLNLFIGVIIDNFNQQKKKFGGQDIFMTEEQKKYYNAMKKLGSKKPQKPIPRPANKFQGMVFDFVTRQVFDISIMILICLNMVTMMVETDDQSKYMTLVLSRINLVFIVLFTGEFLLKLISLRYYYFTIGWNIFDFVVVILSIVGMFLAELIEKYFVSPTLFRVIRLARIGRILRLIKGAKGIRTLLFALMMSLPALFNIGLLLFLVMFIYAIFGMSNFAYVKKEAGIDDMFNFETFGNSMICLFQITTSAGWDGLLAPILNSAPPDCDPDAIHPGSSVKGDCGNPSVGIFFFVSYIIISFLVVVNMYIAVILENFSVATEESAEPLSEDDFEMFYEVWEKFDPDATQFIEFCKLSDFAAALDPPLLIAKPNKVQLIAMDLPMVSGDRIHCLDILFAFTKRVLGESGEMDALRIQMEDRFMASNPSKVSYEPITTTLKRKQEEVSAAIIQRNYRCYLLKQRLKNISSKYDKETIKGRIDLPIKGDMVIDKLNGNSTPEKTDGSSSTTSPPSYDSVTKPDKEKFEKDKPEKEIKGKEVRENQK
# [2] = target: human NaV1.7 α-subunit (in oocytes) (human) (UniProt Q15858)
# [3] = target: rat NaV1.2 α-subunit (rat) (UniProt P04775)
# Sequence of rat NaV1.2 α-subunit (rat) (P04775 whole entry): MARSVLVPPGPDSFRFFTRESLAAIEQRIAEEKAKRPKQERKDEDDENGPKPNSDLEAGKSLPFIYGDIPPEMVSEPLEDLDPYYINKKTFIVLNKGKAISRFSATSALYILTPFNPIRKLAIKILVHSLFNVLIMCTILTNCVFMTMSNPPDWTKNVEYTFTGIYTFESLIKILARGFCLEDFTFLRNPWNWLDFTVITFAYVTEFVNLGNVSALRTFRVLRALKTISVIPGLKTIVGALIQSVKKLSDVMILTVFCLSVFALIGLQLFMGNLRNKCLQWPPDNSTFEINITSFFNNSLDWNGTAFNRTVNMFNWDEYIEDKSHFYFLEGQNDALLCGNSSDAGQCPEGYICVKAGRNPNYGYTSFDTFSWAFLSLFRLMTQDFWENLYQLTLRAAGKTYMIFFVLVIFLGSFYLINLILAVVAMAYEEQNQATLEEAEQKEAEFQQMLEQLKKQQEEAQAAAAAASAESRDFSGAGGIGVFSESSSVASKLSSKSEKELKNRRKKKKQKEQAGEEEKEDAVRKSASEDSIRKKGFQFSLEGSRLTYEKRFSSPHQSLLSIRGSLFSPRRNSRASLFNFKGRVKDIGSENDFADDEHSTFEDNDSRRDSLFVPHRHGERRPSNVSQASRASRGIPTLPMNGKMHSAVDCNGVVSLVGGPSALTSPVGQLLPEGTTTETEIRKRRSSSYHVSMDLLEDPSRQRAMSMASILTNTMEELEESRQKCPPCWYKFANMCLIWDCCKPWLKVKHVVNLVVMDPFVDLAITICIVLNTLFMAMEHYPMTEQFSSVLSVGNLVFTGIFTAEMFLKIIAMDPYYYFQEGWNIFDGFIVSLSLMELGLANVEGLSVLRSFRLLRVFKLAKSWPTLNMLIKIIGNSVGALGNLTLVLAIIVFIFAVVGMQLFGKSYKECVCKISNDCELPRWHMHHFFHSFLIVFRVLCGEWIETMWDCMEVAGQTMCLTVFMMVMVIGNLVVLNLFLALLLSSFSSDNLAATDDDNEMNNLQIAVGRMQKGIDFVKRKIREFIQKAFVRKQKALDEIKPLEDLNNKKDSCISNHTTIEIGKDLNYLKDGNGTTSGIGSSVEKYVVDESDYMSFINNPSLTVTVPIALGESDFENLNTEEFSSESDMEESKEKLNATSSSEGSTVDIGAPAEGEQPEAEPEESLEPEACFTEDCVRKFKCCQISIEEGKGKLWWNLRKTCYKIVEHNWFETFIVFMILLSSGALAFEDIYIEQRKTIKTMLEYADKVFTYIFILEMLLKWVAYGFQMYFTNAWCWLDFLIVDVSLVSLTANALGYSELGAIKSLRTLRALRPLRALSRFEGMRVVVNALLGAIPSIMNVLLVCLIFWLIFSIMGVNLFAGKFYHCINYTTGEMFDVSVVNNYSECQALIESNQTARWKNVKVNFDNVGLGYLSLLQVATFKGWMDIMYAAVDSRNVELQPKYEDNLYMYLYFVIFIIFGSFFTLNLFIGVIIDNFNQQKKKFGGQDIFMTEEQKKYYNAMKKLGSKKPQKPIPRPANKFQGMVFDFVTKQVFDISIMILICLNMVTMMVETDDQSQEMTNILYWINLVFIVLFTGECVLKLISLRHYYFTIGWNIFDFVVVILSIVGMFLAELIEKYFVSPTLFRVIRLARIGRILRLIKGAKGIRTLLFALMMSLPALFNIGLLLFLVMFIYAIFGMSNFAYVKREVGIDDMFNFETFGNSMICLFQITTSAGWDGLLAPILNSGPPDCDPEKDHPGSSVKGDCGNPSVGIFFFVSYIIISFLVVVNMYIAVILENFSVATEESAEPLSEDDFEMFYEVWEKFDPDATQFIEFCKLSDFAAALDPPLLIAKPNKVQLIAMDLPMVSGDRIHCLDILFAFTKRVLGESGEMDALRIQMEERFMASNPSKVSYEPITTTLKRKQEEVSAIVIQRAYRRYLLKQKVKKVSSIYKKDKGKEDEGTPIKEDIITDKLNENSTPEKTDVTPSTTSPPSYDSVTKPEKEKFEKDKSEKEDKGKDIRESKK
# [4] = target: human NaV1.7 α-subunit (in HEK293 cells) (human) (UniProt Q15858)
# [5] = target: human NaV1.6 α-subunit (in HEK293 cells) (human) (UniProt Q9UQD0)
# [6] = target: human NaV1.1 α-subunit (in HEK293 cells) (human) (UniProt P35498)
# [7] = target: KV2.1 chimaera with the S3-S4 linker region of hNaV1.7 DIV
# [8] = target: KV2.1 chimaera with the S3-S4 linker region of hNaV1.7 DII
# [9] = target: human NaV1.1 α-subunit (in HEK293 cells) (human) (UniProt P35498); remark: listed apart in the source
# NaV channels = conditions: cited from earlier work
# Excerpt: These VSD modulating peptides have been described to modify channel gating in three distinct ways depending on the domain they target and the effect on that domain[17]. Domain IV of the NaV channel α-subunit uniquely controls inactivation of the channel, thus spider peptides that interact with and hinder the normal function of VSDIV slow or inhibit fast inactivation of the channel and may result in persistent current. Conversely, spider venom peptides that interact with DI, DII, and DIII VSD modulate channel activation. Most of those discovered to date cause a shift in the voltage- ... || NaV channel fast inactivation is controlled by the movement of the DIV voltage-sensing domain[17]. […] However, all these peptides share less than 50% similarity with Pre1a (See Fig. 1d) and have very differ ...
# [10] = target: rat NaV1.3 α-subunit (rat) (UniProt P08104); remark: listed apart in the source
# [11] = target: human NaV1.7 α-subunit (in oocytes) (human) (UniProt Q15858); remark: listed apart in the source
# [12] = target: rat NaV1.2 α-subunit (rat) (UniProt P04775); remark: listed apart in the source
# [13] = target: human NaV1.5 α-subunit (human) (UniProt Q14524)
# [14] = target: rat NaV1.4 α-subunit (rat) (UniProt P15390)
# [15] = target: rat NaV1.3 α-subunit (rat) (UniProt P08104); remark: listed apart in the source
# [16] = target: rat NaV1.3 α-subunit (rat) (UniProt P08104); remark: listed apart in the source
# hNaV1.1 [17] = target: T1, hNaV1.1 (Homo sapiens, UniProt P35498); conditions: hNaV1.3 and hNaV1.1 peak current; cited from earlier work
# Excerpt: as §1
# hNaV1.3 = hNaV1.3 and hNaV1.1 peak current; cited from earlier work
# Excerpt: as §1
# rNaV1.2 = target: T2, rNaV1.2 (Rattus norvegicus, UniProt P04775); assay: Two-electrode voltage clamp, rNaV1.2 expressed in Xenopus oocytes; format: cell-based; conditions: α-subunit alone, clamped at −90 mV, 50 ms step to −10 or 0 mV, recombinant Pre1a, n ≥ 5, read-out: peak current inhibition IC50
# T2 construct: expressed in transfected cells; host or cells: Xenopus laevis oocytes (cRNA injection, alpha subunit alone)
# T2 sequence (P04775 whole entry): as above
# Experimental: (§2) The preparation and injection of Xenopus laevis oocytes and NaV channel recordings using two-electrode voltage-clamp (TEVC) were carried out as described previously. Capped cRNA encoding rat NaV1.2, NaV1.3 and NaV1.4, and human NaV1.5 and NaV1.7 were injected at 20–40 ng of cRNA/oocyte and kept at 17–18 °C in ND96 solution containing (in mM) 96 NaCl, 2 KCl, 1 CaCl2, 2 MgCl2, 5 HEPES, 5 pyruvic acid, 50 µg/ml gentamicin (pH 7.4), and horse serum (2.5%). Membrane currents were recorded 2–5 days after injection. Oocytes were clamped at −90 mV and currents were elicited by a 50 ms depolarising step to −10 or 0 mV every 10 s for concentration response curves. Both peak and late current (50 ms post peak) were analysed. The concentration response curves were fitted to the Hill equation (GraphPad Prism 6). Current-voltage (I-V) relationships and voltage-dependence of fast inactivation were determined using a family of 100 ms conditioning pulses from −100 mV to +50 mV (+60 mV for rNaV1.3) in 5 mV steps, followed by a test depolarisation step to 0 mV with a 20 s sweep interval from a holding potential of −90 mV. […] The half-activation potential (V 1/2) was determined using a Boltzmann fit (GraphPad Prism 6). […]
# hNaV1.1 [18] = target: T1, hNaV1.1; assay: QPatch automated patch clamp, HEK293 cells stably co-expressing hNaV1.1 and NaVβ1; format: cell-based; conditions: HEK
# Experimental: (§3) For patch clamp analysis, HEK293 cells stably co-expressing the hNaV1.1, hNaV1.6, or hNaV1.7 α-subunit with the NaVβ1-subunit (SB Drug Discovery) were cultured following manufacturer guidelines. Cells were removed from culture at 70% confluency using Detachin (Genlantis) and resuspended to 5 × 10^6 cells/mL in Ex-Cell ACF CHO Medium (Life Technologies) supplemented with 25 mM HEPES (Sigma-Aldrich) and 1 × Glutamax (Life Technologies) before being transferred to the Q-Patch Q-Stirrer and allowed to recover for 30 min before assay.
# (§4) The external solution contained (in mM): 140 NaCl, 4 KCl, 2 CaCl2, 1 MgCl2, 10 HEPES, 20 TEA-Cl, 10 glucose, pH 7.4 (with NaOH) and adjusted to 315 mOsm 0.05% BSA was added to prevent adsorptive loss of peptide. The intracellular solution contained (in mM): 140 CsF, 1/5 EGTA/CsOH, 10 HEPES and 10 NaCl, pH 7.4 (with CsOH) and adjusted to 320 mOsm. Whole-cell patch-clamp experiments were performed at room temperature on a QPatch-16 automated electrophysiology platform (Biolin Scientific) using 16-channel planar patch chip plates (Q-Plates) with a patch hole diameter of 1 µm and resistance of 2 ± 0.1 MΩ. […] Pre1a concentrations were incubated for a fixed time of 5–10 min to allow steady-state activity, monitored by the I-T plot.
# rNaV1.3 = target: T3, rNaV1.3 (Rattus norvegicus, UniProt P08104); assay: Two-electrode voltage clamp, rNaV1.3 expressed in Xenopus oocytes; format: cell-based
# T3 construct: expressed in transfected cells; host or cells: Xenopus laevis oocytes (cRNA injection, alpha subunit alone)
# T3 sequence (P08104 whole entry): as the sequence (P08104 whole entry) above
# Excerpt: We analysed the rate of fast inactivation (defined as tau, τinact, or the time to reach 36.8% of a single exponential fit of the current decay) and the degree of persistent sodium current measured at 50 ms of depolarisation (NaV1.2 and 1.7) and 100 ms for rNaV1.3 due to the longer time required to reach complete inactivation in the oocyte expression system without β1.
# The preparation and injection of Xenopus laevis oocytes and NaV channel recordings using two-electrode voltage-clamp (TEVC) were carried out as described previously. Capped cRNA encoding rat NaV1.2, NaV1.3 and NaV1.4, and human NaV1.5 and NaV1.7 were injected at 20–40 ng of cRNA/oocyte and kept at 17–18 °C in ND96 solution containing (in mM) 96 NaCl, 2 KCl, 1 CaCl2, 2 MgCl2, 5 HEPES, 5 pyruvic acid, 50 µg/ml gentamicin (pH 7.4), and horse serum (2.5%). Membrane currents were recorded 2–5 days after injection. Oocytes were clamped at −90 mV and currents were elicited by a 50 ms depolarising step to −10 or 0 mV every 10 s for concentration response curves. Both peak and late current (50 ms post peak) were analysed. The concentration response curves were fitted to the Hill equation (GraphPad Prism 6). Current-voltage (I-V) relationships and voltage-dependence of fast inactivation were determined using a family of 100 ms conditioning pulses from −100 mV to +50 mV (+60 mV for rNaV1.3) in 5 mV steps, followed by a test depolarisation step to 0 mV with a 20 s sweep interval from a holding potential of −90 mV. To determine the voltage-dependence of activation non-normalised peak current was used from the I-V family to calculate channel conductance using the equation: G(V) = I/(V − V rev), in which I, V, and V rev represent inward NaV current, test potential, and reversal potential, respectively. The half-activation potential (V 1/2) was determined using a Boltzmann fit (GraphPad Prism 6). All data points are shown as the pIC50 ± S.E.M., as well as the IC50. Replicates (n) represent separate experimental oocytes. Pre1a was resuspended in ND96 solution containing 0.1% bovine serum albumin for all activity analysis. […]
# hNaV1.7 [19] = target: T4, hNaV1.7 (Homo sapiens, UniProt Q15858); assay: Two-electrode voltage clamp, hNaV1.7 expressed in Xenopus oocytes; format: cell-based; parameters: expressed in transfected cells; host or cells: Xenopus laevis oocytes (cRNA injection, alpha subunit alone)
# Experimental: as §2
# hNaV1.6 = hNaV1.6 (Homo sapiens, UniProt Q9UQD0); assay: QPatch automated patch clamp, HEK293 cells stably co-expressing hNaV1.6 and NaVβ1; format: cell-based; conditions: HEK, with NaVβ1, QPatch16, 5–10 min incubation, holding −100 mV; n ≥ 6; read-out: peak current inhibition IC50
# Experimental: as §3, §4
# hNaV1.7 [20] = target: T4, hNaV1.7; assay: QPatch automated patch clamp, HEK293 cells stably co-expressing hNaV1.7 and NaVβ1; format: cell-based
# Experimental: as §3, §4
# NaV channel DII = conditions: mutagenesis; cited from earlier work
# Excerpt: The striking differences in effects on NaV1.1, 1.2 and 1.3 are of particular significance for understanding the molecular basis of Pre1a’s subtype selectivity as these three channels have essentially identical S3-S4 linker regions in both DII and DIV (Fig. 7a) (note that NaV1.1 DII S3-S4 has an M to V ...
compound,measurement,setting,value
CCN1CC(n2nccc2-c2cc(C(F)(F)F)ccc2Oc2ccc(S(=O)(=O)Nc3ncns3)cc2C#N)C1 [GX-936],state in which VSD is arrested,NaV1.7 VSD IV,arrests the VSD in the inactivated state
β/δ-TRTX-Pre1a (synthetic or recombinant not stated for the experiment) (peptide),"shift of the V1/2 of activation of the late current by 1 μM Pre1a, Xenopus oocytes",[1],9.6 mV
same,"shift of the V1/2 of activation by 1 µM Pre1a, Xenopus oocytes",[2],13.8 mV
same,"shift of the V1/2 of activation by 1 µM Pre1a, Xenopus oocytes",[3],14.9 mV
same,"IC50 of inhibition of peak current, QPatch16 automated patch clamp, HEK cells",[4],15 nM
same,"IC50 of inhibition of peak current, QPatch16 automated patch clamp, HEK cells",[5],222 nM
same,"IC50 of inhibition of peak current, QPatch16 automated patch clamp, HEK cells",[6],57.1 nM
same,percent inhibition of outward (peak) current by 1 μM Pre1a,[7],27.1%
same,percent inhibition of outward (peak) current by 1 μM Pre1a,[8],44%
same,"EC50 of inhibition of fast inactivation (late current at 10 ms from peak), QPatch, HEK cells",[9],41.4 nM
ProTx-II: spider peptide,effect on peak current and fast inactivation,NaV channels,inhibit both peak current and fast inactivation of NaV channels
recombinant β/δ-TRTX-Pre1a (peptide),"IC50 of inhibition of peak inward current (weak), two-electrode voltage clamp, Xenopus oocytes",[10],8000 nM
same,"IC50 of inhibition of peak inward current, two-electrode voltage clamp, Xenopus oocytes",[11],114 nM
same,"IC50 of inhibition of peak inward current, two-electrode voltage clamp, Xenopus oocytes",[12],190 nM
same,"percent inhibition of peak current amplitude by 1 μM Pre1a (weak), two-electrode voltage clamp, Xenopus oocytes",[13],8.6%
same,"percent inhibition of peak current amplitude by 1 μM Pre1a (weak), two-electrode voltage clamp, Xenopus oocytes",[14],16.5%
same,"EC50 of inhibition of inactivation (late current), as printed in the legend, Xenopus oocytes",[15],45 nM
same,"EC50 of inhibition of inactivation (late current at 100 ms), two-electrode voltage clamp, Xenopus oocytes",[16],45.5 nM
O=C(Nc1ccc(S(=O)(=O)Nc2nccs2)cc1)C(c1ccccc1)c1ccccc1 [ICA-121431],selectivity,hNaV1.1 [17],~ 1000 fold
same,selectivity,hNaV1.3,~ 1000 fold
"CC[C@H](C)[C@H](NC(=O)[C@H](CCCCN)NC(=O)[C@H](Cc1ccc(O)cc1)NC(=O)[C@H](CCCCN)NC(=O)[C@@H]1CSSC[C@@H]2NC(=O)[C@H](CCCCN)NC(=O)[C@H](CC(=O)O)NC(=O)[C@H](CC(N)=O)NC(=O)[C@H](CCCCN)NC(=O)[C@@H]3CCCN3C(=O)[C@H](CO)NC(=O)[C@@H]3CSSC[C@H](NC(=O)[C@H](CCCCN)NC(=O)[C@H](Cc4ccc(O)cc4)NC(=O)[C@H](CC(N)=O)NC(=O)[C@@H]4CCCN4C(=O)[C@H](CSSC[C@H](NC(=O)[C@H](CC(=O)O)NC(=O)[C@@H](N)CCC(=O)O)C(=O)N[C@@H](CC(C)C)C(=O)NCC(=O)N[C@@H](Cc4c[nH]c5ccccc45)C(=O)N[C@@H](Cc4ccccc4)C(=O)N[C@@H](CO)C(=O)N[C@@H](CCCNC(=N)N)C(=O)N3)NC2=O)C(=O)N[C@@H](CO)C(=O)N[C@@H](CO)C(=O)N[C@@H](CCCCN)C(=O)N[C@@H](CC(=O)O)C(=O)N[C@@H](CC(C)C)C(=O)N[C@@H](Cc2c[nH]c3ccccc23)C(=O)N1)C(=O)N[C@@H](Cc1c[nH]c2ccccc12)C(=O)O [Pre1a] (H-EDCLGWFSRCSPKNDKCCPNYKCSSKDLWCKYKIW-OH; disulfide 3-18, 10-23, 17-30)",IC50,rNaV1.2,190 nM
same,IC50,"hNaV1.1 [18]; QPatch16, read-out: peak current inhibition pIC50 (converted)",57.5 nM
same,EC50,"hNaV1.1 [18]; late current at 10 ms from peak, read-out: inhibition of fast inactivation pEC50 (converted)",41.7 nM
same,EC50,"rNaV1.3; late current at 100 ms, ± S.E.M.",45.7 nM
same,selectivity for inhibiting inactivation over activation,rNaV1.3; rNaV1.3 inactivation vs activation,more than 150 fold
same,IC50,"rNaV1.3; recombinant Pre1a, ± S.E.M., read-out: peak current inhibition pIC50 (converted)",7940 nM
same,IC50,hNaV1.7 [19],114 nM
same,selectivity for inhibiting activation over NaV1.3,hNaV1.7 [19]; NaV1.7 activation vs NaV1.3,~ 70 fold
same,IC50,hNaV1.6,222 nM
same,IC50,hNaV1.7 [20],15.1 nM
HwTxIV,effect of divergent residues in S2 region 1 on activity,NaV channel DII,little effect on the activity
